Patent US20060110789

How the values were obtained:
[1] = biological target: T1, M3+TE (module 3 of DEBS with its own N-terminal linker, fused to thioesterase), Q03132
T1 chain: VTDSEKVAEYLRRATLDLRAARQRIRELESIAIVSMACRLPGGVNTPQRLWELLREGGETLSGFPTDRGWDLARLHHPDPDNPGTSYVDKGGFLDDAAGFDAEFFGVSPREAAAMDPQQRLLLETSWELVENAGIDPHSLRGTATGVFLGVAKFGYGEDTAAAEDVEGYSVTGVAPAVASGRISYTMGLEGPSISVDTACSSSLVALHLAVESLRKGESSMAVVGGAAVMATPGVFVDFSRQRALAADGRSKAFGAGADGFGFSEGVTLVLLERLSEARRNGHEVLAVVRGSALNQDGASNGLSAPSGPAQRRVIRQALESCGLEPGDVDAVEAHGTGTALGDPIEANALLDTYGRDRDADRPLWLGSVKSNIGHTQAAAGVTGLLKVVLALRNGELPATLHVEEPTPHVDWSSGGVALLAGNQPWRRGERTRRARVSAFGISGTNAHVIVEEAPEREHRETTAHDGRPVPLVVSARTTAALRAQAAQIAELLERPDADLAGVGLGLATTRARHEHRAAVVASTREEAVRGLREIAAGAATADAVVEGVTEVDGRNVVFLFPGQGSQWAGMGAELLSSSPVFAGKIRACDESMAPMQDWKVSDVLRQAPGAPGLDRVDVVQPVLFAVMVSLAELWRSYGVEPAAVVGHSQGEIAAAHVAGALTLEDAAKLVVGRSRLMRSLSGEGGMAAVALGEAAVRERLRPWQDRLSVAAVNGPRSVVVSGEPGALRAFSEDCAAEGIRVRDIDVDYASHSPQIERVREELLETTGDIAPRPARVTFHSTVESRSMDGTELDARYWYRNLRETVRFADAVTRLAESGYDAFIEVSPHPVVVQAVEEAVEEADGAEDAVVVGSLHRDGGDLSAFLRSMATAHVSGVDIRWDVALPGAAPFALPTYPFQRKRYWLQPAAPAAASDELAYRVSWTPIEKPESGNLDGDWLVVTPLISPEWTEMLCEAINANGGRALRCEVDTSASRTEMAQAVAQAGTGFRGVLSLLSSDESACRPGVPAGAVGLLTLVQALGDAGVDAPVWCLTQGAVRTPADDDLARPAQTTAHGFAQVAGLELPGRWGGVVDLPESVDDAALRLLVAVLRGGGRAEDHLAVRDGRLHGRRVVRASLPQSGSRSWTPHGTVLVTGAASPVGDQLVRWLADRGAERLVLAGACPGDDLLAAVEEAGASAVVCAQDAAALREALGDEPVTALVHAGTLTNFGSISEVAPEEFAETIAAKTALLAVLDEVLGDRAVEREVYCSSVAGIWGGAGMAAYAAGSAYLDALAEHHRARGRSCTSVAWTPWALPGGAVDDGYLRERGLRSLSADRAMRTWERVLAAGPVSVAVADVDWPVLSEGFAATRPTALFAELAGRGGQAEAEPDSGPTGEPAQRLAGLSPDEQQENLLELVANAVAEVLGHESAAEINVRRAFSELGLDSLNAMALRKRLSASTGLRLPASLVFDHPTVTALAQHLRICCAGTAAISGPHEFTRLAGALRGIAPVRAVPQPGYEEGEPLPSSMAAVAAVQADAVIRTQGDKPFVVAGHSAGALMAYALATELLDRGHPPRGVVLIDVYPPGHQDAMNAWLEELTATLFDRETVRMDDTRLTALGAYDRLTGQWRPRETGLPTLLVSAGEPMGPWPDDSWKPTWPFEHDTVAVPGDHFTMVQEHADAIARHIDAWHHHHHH

[2] = biological target: T2, (5)M3+TE (module 3 of DEBS with the N-terminal linker of module 5, fused to thioesterase), Q03132
T2 chain: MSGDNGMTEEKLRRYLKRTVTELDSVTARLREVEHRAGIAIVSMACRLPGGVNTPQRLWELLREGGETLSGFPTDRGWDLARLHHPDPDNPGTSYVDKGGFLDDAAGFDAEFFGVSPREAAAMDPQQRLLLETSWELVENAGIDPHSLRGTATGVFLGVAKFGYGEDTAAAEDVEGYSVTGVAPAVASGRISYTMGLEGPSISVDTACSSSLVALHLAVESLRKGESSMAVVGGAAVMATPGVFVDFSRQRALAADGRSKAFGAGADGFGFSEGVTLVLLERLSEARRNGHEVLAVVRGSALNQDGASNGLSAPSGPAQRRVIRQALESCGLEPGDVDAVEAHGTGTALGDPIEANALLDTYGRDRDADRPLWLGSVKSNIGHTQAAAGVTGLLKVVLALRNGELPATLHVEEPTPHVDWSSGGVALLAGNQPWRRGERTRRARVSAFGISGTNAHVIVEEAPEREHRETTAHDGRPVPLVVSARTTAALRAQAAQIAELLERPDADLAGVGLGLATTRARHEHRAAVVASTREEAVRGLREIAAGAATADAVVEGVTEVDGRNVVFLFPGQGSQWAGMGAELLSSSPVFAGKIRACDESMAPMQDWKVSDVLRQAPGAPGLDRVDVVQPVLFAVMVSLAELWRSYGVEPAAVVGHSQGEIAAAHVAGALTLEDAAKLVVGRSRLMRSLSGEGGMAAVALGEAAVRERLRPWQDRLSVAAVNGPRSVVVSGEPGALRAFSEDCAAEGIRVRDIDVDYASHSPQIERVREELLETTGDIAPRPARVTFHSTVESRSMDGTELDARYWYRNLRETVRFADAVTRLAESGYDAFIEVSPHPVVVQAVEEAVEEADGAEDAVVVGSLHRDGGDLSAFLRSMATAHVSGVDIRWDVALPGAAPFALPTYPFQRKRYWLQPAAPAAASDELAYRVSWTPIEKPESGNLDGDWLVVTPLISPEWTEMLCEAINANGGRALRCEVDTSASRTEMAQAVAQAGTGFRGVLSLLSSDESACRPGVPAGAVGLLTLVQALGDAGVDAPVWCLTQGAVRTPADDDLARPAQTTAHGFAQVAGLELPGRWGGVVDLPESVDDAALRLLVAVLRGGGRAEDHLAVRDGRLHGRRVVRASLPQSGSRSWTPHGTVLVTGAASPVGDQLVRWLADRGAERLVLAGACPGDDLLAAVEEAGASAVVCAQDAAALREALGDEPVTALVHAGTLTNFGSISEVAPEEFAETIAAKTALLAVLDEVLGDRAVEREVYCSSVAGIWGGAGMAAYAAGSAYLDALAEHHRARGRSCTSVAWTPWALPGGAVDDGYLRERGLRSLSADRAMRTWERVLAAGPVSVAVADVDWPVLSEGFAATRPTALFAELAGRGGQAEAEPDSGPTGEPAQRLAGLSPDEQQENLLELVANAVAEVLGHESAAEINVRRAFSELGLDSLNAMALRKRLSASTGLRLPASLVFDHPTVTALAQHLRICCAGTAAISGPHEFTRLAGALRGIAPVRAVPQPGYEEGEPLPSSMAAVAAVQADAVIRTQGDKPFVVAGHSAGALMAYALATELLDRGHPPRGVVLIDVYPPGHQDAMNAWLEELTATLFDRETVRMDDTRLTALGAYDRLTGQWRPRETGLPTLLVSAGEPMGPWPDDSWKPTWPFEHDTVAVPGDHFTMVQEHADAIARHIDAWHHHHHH

B1: M2(4) (module 2 of DEBS with the C-terminal linker of module 4) (protein)
chain: MSGDNGMTEEKLRRYLKRTVTELDSVTARLREVEHRAGIAIVGMACRLPGEVDSPERLWELITSGRDSAAEVPDDRGWVPDELMASDAAGTRAHGNFMAGAGDFDAAFFGISPREALAMDPQQRQALETTWEALESAGIPPETLRGSDTGVFVGMSHQGYATGRPRPEDGVDGYLLTGNTASVASGRIAYVLGLEGPALTVDTACSSSLVALHTACGSLRDGDCGLAVAGGVSVMAGPEVFTEFSRQGALSPDGRCKPFSDEADGFGLGEGSAFVVLQRLSDARREGRRVLGVVAGSAVNQDGASNGLSAPSGVAQQRVIRRAWARAGITGADVAVVEAHGTGTRLGDPVEASALLATYGKSRGSSGPVLLGSVKSNIGHAQAAAGVAGVIKVLLGLERGVVPPMLCRGERSGLIDWSSGEIELADGVREWSPAADGVRRAGVSAFGVSGTNAHVIIAEPPEPEPVPQPRRMLPATGVVPVVLSARTGAALRAQAGRLADHLAAHPGIAPADVSWTMARARQHFEERAAVLAADTAEAVHRLRAVADGAVVPGVVTGSASDGGSVFVFPGQGAQWEGMARELLPVPVFAESIAECDAVLSEVAGFSVSEVLEPRPDAPSLERVDVVQPVLFAVMVSLARLWRACGAVPSAVIGHSQGEIAAAVVAGALSLEDGMRVVARRSRAVRAVAGRGSMLSVRGGRSDVEKLLADDSWTGRLEVAAVNGPDAVVVAGDAQAAREFLEYCEGVGIRARAIPVDYASHTAHVEPVRDELVQALAGITPRRAEVPFFSTLTGDFLDGTELDAGYWYRNLRHPVEFHSAVQALTDQGYATFIEVSPHPVLASSVQETLDDAESDAAVLGTLERDAGDADRFLTALADAHTRGVAVDWEAVLGRAGLVDLPGYPFQGKRFWLLPDRTTPRDELDGWFYRVDWTEVPRSEPAALRGRWLVVVPEGHEEDGWTVEVRSALAEAGAEPEVTRGVGGLVGDCAGVVSLLALEGDGAVQTLVLVRELDAEGIDAPLWTVTFGAVDAGSPVARPDQAKLWGLGQVASLERGPRWTGLVDLPHMPDPELRGRLTAVLAGSEDQVAVRADAVRARRLSPAHVTATSEYAVPGGTILVTGGTAGLGAEVARWLAGRGAEHLALVSRRGPDTEGVGDLTAELTRLGARVSVHACDVSSREPVRELVHGLIEQGDVVRGVVHAAGLPQQVAINDMDEAAFDEVVAAKAGGAVHLDELCSDAELFLLFSSGAGVWGSARQGAYAAGNAFLDAFARHRRGRGLPATSVAWGLWAAGGMTGDEEAVSFLRERGVRAMPVPRALAALDRVLASGETAVVVTDVDWPAFAESYTAARPRPLLDRIVTTAPSERAGEPETESLRDRLAGLPRAERTAELVRLVRTSTATVLGHDDPKAVRATTPFKELGFDSLAAVRLRNLLNAATGLRLPSTLVFDHPNASAVAGFLDFAASPAVDIGDRLDELEKALEALSAEDGHDDVGQRLESLLRRWNSRRADAPSTSAISEDASDDELFSMLDQRFGGGEDL
[1]
  highest rate constant of tetraketide lactone 2 formation (mismatched linkers): in the range of 0.02-0.03 min^-1
[2]
  KM, fold increase against the natural linker pair (M2 with M3+TE): the increase in KM value upon swapping in the alternate linker pair is a more modest 2-fold
  kcat of tetraketide lactone 2 synthesis: kcat of 0.74±0.06 min^-1
